# Assays:
# [1] = molecular target: Elizabethkingia meningoseptica BioE (Elizabethkingia meningoseptica); assay: SEC; Superdex 75 (Increase) column, 20 mM Tris-HCl pH 8.0, 300 mM NaCl; oligomeric state judged from retention volume
# [2] = molecular target: Chlamydia psittaci BioE (Chlamydia psittaci); assay: SPR; […], single-cycle kinetics, 1:1 Langmuir fit; […]
# Sequence of stearoyl-ACP (E. coli acyl carrier protein carrying a C18 acyl group) (P0A6A8 2-78): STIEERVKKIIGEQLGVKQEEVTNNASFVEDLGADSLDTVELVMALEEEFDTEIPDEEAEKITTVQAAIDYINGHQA
stoichiometry N [1],Substance,Kd [2]
2,Elizabethkingia meningoseptica BioE (enzyme),–
–,stearoyl-ACP (E. coli acyl carrier protein carrying a C18 acyl group) (from UniProt P0A6A8 2-78) (natural protein),203 nM

# From paper PMC12915131, “Balanced Expression of the Diiron Oxygenase BioE Is Essential for Biotin Homeostasis in Elizabethkingia meningoseptica” (Advanced Science, 2025)
